± gives the standard error. For some of these results: Variants at the floor of the assay were thinned out.
B1: glmS ribozyme (parent)
chain: AUAAAAGCGCCAGAACUACAGAAAUGUAGUUGACGAGGAGGAGGUUUAUCGAAUUUUCGGCGGAUGCCUCCAAA

Tests used:
Conditions in all cases: with glucosamine-6-phosphate
[1] = variants of: B1; test: kcat; higher = faster cleavage; RNA array
Summary of the method: (§1)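 Barcoded glmS ribozyme variants on sequenced MiSeq chips were transcribed in situ by E. coli RNA polymerase and tracked through a hybridised Cy3 probe at 37 °C. Glucosamine-6-phosphate (40 μM to 10 mM) in HEPES/KCl/Mg(OAc)2 buffer was flowed in, and tiles were imaged over ~14 h. Signals were normalised to baseline and to non-cleaving reference variants; per-tile medians were fit to one- or two-exponential decays to give kobs. kcat and KM came from weighted Michaelis–Menten fits across concentrations.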

[2] = variants of: B1; test: KM; higher = weaker cofactor use; RNA array
Summary of the method: as §1

[3] = variants of: B1; test: self-cleavage kobs at 40 uM GlcN6P; higher = faster cleavage; RNA array
Summary of the method: as §1

[4] = variants of: B1; test: self-cleavage kobs at 160 uM GlcN6P; higher = faster cleavage; RNA array
Summary of the method: as §1

[5] = variants of: B1; test: self-cleavage kobs at 640 uM GlcN6P; higher = faster cleavage; RNA array
Summary of the method: as §1

[6] = variants of: B1; test: self-cleavage kobs at 2500 uM GlcN6P; higher = faster cleavage; RNA array
Summary of the method: as §1

[7] = variants of: B1; test: self-cleavage kobs at 10000 uM GlcN6P; higher = faster cleavage; RNA array
Summary of the method: as §1

Variant	kcat [1] [s⁻¹]	KM [2] [µM]	self-cleavage kobs at 40 uM GlcN6P [3] [s⁻¹]	self-cleavage kobs at 160 uM GlcN6P [4] [s⁻¹]	self-cleavage kobs at 640 uM GlcN6P [5] [s⁻¹]	self-cleavage kobs at 2500 uM GlcN6P [6] [s⁻¹]	self-cleavage kobs at 10000 uM GlcN6P [7] [s⁻¹]
U46A U69C	0.00197 ± 0.00058	1590 ± 770	9.53e-05 ± 1.9e-05	0.000133 ± 2.7e-05	0.00073 ± 0.00012	0.00122 ± 0.00015	0.00162 ± 0.00027
U45A A48C	0.000559 ± 7.1e-05	2130 ± 560			0.000131 ± 2.3e-05	0.000382 ± 8.1e-05	0.000445 ± 5.6e-05
U46G A48G	7.99e-05 ± 1e-06	1250 ± 69	< 1e-05			5.4e-05 ± 1.2e-05	7.08e-05 ± 1e-05
U46G A48U	0.00014 ± 2.4e-05				3.53e-05 ± 1.4e-05	0.000128 ± 2.5e-05	0.000117 ± 1.6e-05
G44U U56G	0.00018 ± 3.5e-05	3010 ± 1100			3.67e-05 ± 1.1e-05	6.96e-05 ± 1.9e-05	0.00015 ± 3.7e-05
U46C C71A	0.000545 ± 4.7e-05	811 ± 130		8.19e-05 ± 2.2e-05	0.000252 ± 4.5e-05	0.00045 ± 9.1e-05	0.000453 ± 0.00011
U46C C71U	0.00342 ± 0.00056	1240 ± 290	0.000102 ± 1.5e-05	0.000375 ± 5.8e-05	0.00126 ± 0.00019	0.00309 ± 0.00044	0.00266 ± 0.00038
G43U U49C	< 1e-05		< 1e-05	< 1e-05	< 1e-05	< 1e-05	
U46A C68A	1.9e-05 ± 7.6e-06		< 1e-05				
U45G A53G	0.0084 ± 0.0028	2020 ± 990	0.000258 ± 4.3e-05	0.000367 ± 0.00012	0.00204 ± 0.00042	0.00535 ± 0.0012	0.00681 ± 0.0011
U47A C68U	0.00394 ± 0.0013	3290 ± 1500	7.13e-05 ± 1.3e-05	0.000161 ± 3.2e-05	0.00068 ± 0.00012	0.00129 ± 0.00025	0.00346 ± 0.00049
G44U C70U	3.72e-05 ± 5.6e-06		< 1e-05	< 1e-05		3.43e-05 ± 1.1e-05	3.29e-05 ± 6.6e-06
U45C	0.00494 ± 0.00052	2740 ± 390	7.81e-05 ± 1.8e-06	0.000232 ± 9.5e-06	0.000897 ± 2.2e-05	0.00247 ± 6.8e-05	0.00385 ± 9.4e-05
U45A	0.0731 ± 0.026	1680 ± 700	0.00192 ± 4e-05	0.00532 ± 0.00022	0.0167 ± 0.00063	0.0529 ± 0.0042	0.0751 ± 0.0041
